Results taken from the supplement of paper PMC12042874.
± gives the uncertainty stated by the source.

assay: amyloid nucleation score (Sup35N fusion, yeast selection) (log enrichment); library NNK3; higher = more nucleation; inactive = no reads after selection
Method in brief: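 Peptides of 20 random codons fused to Sup35N were expressed in psi-negative yeast, induced 24 hours with 100 μM copper sulfate, then grown 7 days at 30°C on medium lacking adenine and uracil. Input and output plasmid inserts were Illumina-sequenced. Nucleation score is the DiMSum log enrichment of output over input reads, centred on the mode score of non-aggregating sequences, excluding sequences with under 100 input reads. Random libraries had three technical output replicates.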

Row | Substance | amyloid nucleation score
1 | YMNSVACSEMFSFSGLWEWW | inactive
2 | VSFCGTPFFYHWRHSNWLFK | inactive
3 | FYAYVSVDTVCSVAICLICT | inactive
4 | NSLCKLGFFSMVKYV | inactive
5 | KVLMST | -0.443 ± 1.4
6 | VVRIGSRACGLRRKVCGGFG | inactive
7 | NEHGEAGCAYEAKGAVGVKS | inactive
8 | YCVSMANKLTCLCKGNSYPN | 2.4 ± 0.061
9 | RCSVVTSFQGICMACKYAGG | 1.26 ± 0.1
10 | PFFCYWVTMKKVIFDTGVFA | inactive
11 | TCTSQMLVWYFFPFLINMSW | inactive
12 | MICLLSSSCKRRCLMG | inactive
13 | RGQGKHNSRYFCLIT | inactive
14 | RLYVSKEFRSA | inactive
15 | KKMLEKKI | inactive
16 | LNLWD | inactive
17 | DSLRWDYRL | inactive
18 | FMGDRLKEAGDRTLYDQKVG | inactive
19 | SGVKFSYNWQR | inactive
20 | SLAYCLLEWMES | -0.172 ± 0.48
21 | WMLLLTV | inactive
22 | VFLHVWCGRVGKL | -0.089 ± 0.98
23 | WKRNKRGKV | 1.4 ± 0.11
24 | VFFYAASD | inactive

Row | Substance | amyloid nucleation score
25 | LDVIFSKTFMEIVTLVVSLD | inactive
26 | HYQHVFLAFNSVLQSPILRE | inactive
27 | GTMSNYPNGFSMSSSYFSTY | inactive
28 | NVIGPSNRVTSWMVKSMQMY | inactive
29 | PNYPDLYHFLICSLCSSFVT | 1.84 ± 0.076
30 | SNSFLFYFEYSGVKLRRLGL | inactive
31 | SIMIVLCGKLTLNFSLRNVV | inactive
32 | RLKLNGAQGEFSGVWLDIWA | inactive
33 | NMENLKRGFVIWS | inactive
34 | PGHIYVML | inactive
35 | FVMGMNAVQRSLSSIYTLCV | inactive
36 | ESNGVSGPAQMERDTVPEVP | inactive
37 | LFRLYKYLQCPSQGWCPRH | inactive
38 | MRLRLYINVSG | inactive
39 | TYFKSGRNILAHIYMWLILG | inactive
40 | RDNYDAFMIL | inactive
41 | ESIVVRF | inactive
42 | SDERCLFGVQRYMHVFLRPI | inactive
43 | IGAIYACRLFVRGLASFLTL | inactive
44 | HGSAWHSISEVVTIIRACGF | inactive
45 | TYLNTVRLKSGMMMNMKSTR | inactive
46 | TFKMQWECVIA | 0.657 ± 0.16
47 | ITLLCLFNATL | 1.98 ± 0.085
48 | EVSGYINMR | inactive

Row | Substance | amyloid nucleation score
49 | THFYWADAVVMPAYRVIRRF | inactive
50 | VKNTGLSSNHLEH | 1.11 ± 0.13
51 | SMDWHAYLDRILLYVRSHS | inactive
52 | MHSGFNRFSTYCRKVGGSYR | inactive
53 | GSDLSWGRYKNSRFSSSMSA | inactive
54 | EFHCSYLVIWYG | inactive
55 | HCSWTSSAHEGPYAETGHWQ | 0.557 ± 0.24
56 | WIGDIIILWMRHSDLCILNC | inactive
57 | YLLDLTTVCAGPWRIPQLMK | inactive
58 | LDTVTCNSLETAFGSFKNWL | inactive
59 | SLRPMLYTSYSS | 0.914 ± 0.17
60 | YKIMTLYTSCKRFEVHRGCT | inactive
61 | IPYSTHRINSILISLSWFCV | 0.691 ± 0.2
62 | TNQQYGSLGFISTSGIILLF | inactive
63 | RHVVGCSYNVIGCFYVVLRI | 1.84 ± 0.083
64 | FLWLKHSQSHVRERL | inactive
65 | SMLQAMEYYNIGIVYNHKIW | inactive
66 | YLVSIRNNYRCEV | inactive
67 | YFSRLTYCSRNSSCWILYCF | inactive
68 | RTPLYAVLWVEGGLLPYLL | inactive
69 | QFDLAMMSVVCYVFFMYWFL | inactive
70 | GVPIWCEKYKLILQKNWLFK | inactive
71 | RWKFYILVIYGVSASTFAQG | inactive
72 | FVRGTVWKSTGDVMDAVPAT | inactive

Row | Substance | amyloid nucleation score
73 | ARFFVVGLWCVSIKIVPFFD | inactive
74 | ILLVWNSMLYYTLDTCVNCC | inactive
75 | LGYMLNGGRMQKNATNKSGA | inactive
76 | GMLPTGRYDRAYSFWGNWRR | 1.08 ± 0.18
77 | YFFTHDFHVVLNFANCIWYL | 2.99 ± 0.069
78 | LFMGCPVEV | -0.515 ± 0.62
79 | VCSCAHGHTGSEESRSVGSA | inactive
80 | FLDFQLFLCTHYLGRI | inactive
81 | QYLPGRTVFCMQIYDVQLYP | inactive
82 | QGDRLENKTLQVLHEKARSR | inactive
83 | QLRACPWYSEVFIEI | inactive
84 | CAFVDSISCLPLFR | inactive
85 | IVALQRSFSNNT | inactive
86 | LYPFYFYA | inactive
87 | IGINVRALRRGLTLVPL | inactive
88 | STDLVIFMSTLPVCSCYCGQ | 1.72 ± 0.08
89 | SLRSFECFSSCTGLWCMLWG | inactive
90 | FVQNDNYKWVWL | inactive
91 | ISKSHGYLYSNWKTCFSELS | inactive
92 | RPDCEYGSS | inactive
93 | SMNFSSWWRLCCDEGSGSYT | 0.671 ± 0.19
94 | RLLFMIPIMIVMNQHPTMNV | 1.01 ± 0.17
95 | TLTYRSSQND | inactive
96 | LRGFKEVTTRLKVRLQLGM | -0.731 ± 1.3

Row | Substance | amyloid nucleation score
97 | MSIVAGENLIGKV | inactive
98 | MCYLSSSDAGDVIPAWC | inactive
99 | VYMYVALPRSEDHNVF | inactive
100 | YTRISTIFGYSAMVQFMPCQ | inactive
101 | QTYCYKEMFLITERWIPHSP | -0.155 ± 0.8
102 | LDHRGIRFFN | inactive
103 | NCSWGRRKETTDLSGSKCWT | 0.881 ± 0.23
104 | MISYELVNALEIISNLIFMW | inactive
105 | YLLKCYVMSDRSMSTCVQLE | inactive
106 | DLRSITMCWCIIPTGRCVVA | inactive
107 | CMIELRSR | inactive
108 | SVEGQHYKLAVTFVDLYNSI | inactive
109 | ASDCWLFIGNAGSFTGKRSC | inactive
110 | YFLSN | inactive
111 | FSSQYMSCIVRRHGGNLDAC | 0.033 ± 0.39
112 | ERQVYMVLGSICRKPTMERS | -1.05 ± 1.9
113 | WGWRA | -0.215 ± 0.57
114 | IRSYAF | inactive
115 | RSCVCTTESPLSMTGLRRVV | inactive
116 | TWDLY | inactive
117 | LQRRYFGSRSLGTFARMFQH | inactive
118 | PTSFQYRCVSI | inactive
119 | FNVYMIITNFLDPL | 2.64 ± 0.062
120 | MKCLEGMHFIIFLVLALCIY | inactive

Row | Substance | amyloid nucleation score
121 | EILVVVPIAGEMSIVFMRGW | inactive
122 | RQTCFIMVSCYPVKNGNSEI | 1.48 ± 0.15
123 | YEFATNAQESS | inactive
124 | TAGNWWNVCVNTFNRWRRLL | inactive
125 | GCDILQFRHCF | inactive
126 | LGVCSGH | inactive
127 | ASTTVGCVYYTLVLIG | 1.98 ± 0.09
128 | QNPTWC | inactive
129 | WLKNF | inactive
130 | SSGHAGGYINYSCTFSAYRM | 0.786 ± 0.19
131 | LVAKRFISYHLIV | inactive
132 | YTDIVSAIEEVF | inactive
133 | MFFWMCE | inactive
134 | LLNTRGSRVMLLGHRLFDN | inactive
135 | LAALLKASWVSHVVSWNKRT | inactive
136 | ILDAEVFGLISGFMSMHCNA | inactive
137 | FSLFLTLFHFFHTRLAACLL | inactive
138 | GRWFVCVQSAWCDCGGDVCV | inactive
139 | RGKYFGCYLSVYSHL | inactive
140 | RWPKIASCFSTHPWSGRYMW | inactive
141 | LRWRHGCIR | inactive
142 | GDYSWSM | 0.167 ± 0.42
143 | NFWNWLHNPWAPM | inactive
144 | PCRKMIQKIVQM | inactive

Row | Substance | amyloid nucleation score
145 | DRSIS | inactive
146 | ERVKWDKRMHPVDHWHVTVS | inactive
147 | QAIGSKRT | inactive
148 | GLDYLLHAIYFECRQSGGSR | 0.983 ± 0.17
149 | QGMSAFYYVYGLKLWLHLLL | inactive
150 | AHCCSFRAEFV | 1.75 ± 0.096
151 | VVSDTKYVVVEWYTCGQSSD | inactive
152 | SWYSMGNP | 1.04 ± 0.14
153 | SILLVMP | inactive
154 | VLWAFNLMLVDWRIRFQNWA | inactive
155 | FRSKLTW | inactive
156 | VCTLGFFSKMGRGPRYYS | inactive
157 | FTTRFTFTIP | 1.24 ± 0.17
158 | GMSCWGSMQWNVL | 0.766 ± 0.17
159 | CITSNVMRSSRLKLV | inactive
160 | DVDRTSCGGVSVRV | inactive
161 | IGFRWY | inactive
162 | VSYISDQGC | inactive
